*1 amine or outer side, *2 acyl side, *3 side chain or, on linkers, in order; H or OH if unused. Primed or numbered codes have the meaning given here. Side-chain parts run from the residue outwards. [ ]: non-standard residue; d: D form. The star is where a group is joined. PEG12 = NCCOCCOCCOCCOCCOCCOCCOCCOCCOCCOCCOCCOCCC(=O)O; γGlu = O=C(O)[C@H](CCC(=O)[*:2])N[*:1]; 1Nal = N[C@@H](Cc1cccc2ccccc12)C(=O)O; Stearoyl = CCCCCCCCCCCCCCCCCC(=O)*; Palmitoyl = CCCCCCCCCCCCCCCC(=O)*; Nle = CCCC[C@H](N)C(=O)O; PEG2′ = PEG2 spacer unit; PEG2″ = not defined here; Aib = CC(C)(N)C(=O)O
T1: RXFP1 receptor (UniProt Q9HBX9 1-757, limits assumed)
T1 sequence (looked up): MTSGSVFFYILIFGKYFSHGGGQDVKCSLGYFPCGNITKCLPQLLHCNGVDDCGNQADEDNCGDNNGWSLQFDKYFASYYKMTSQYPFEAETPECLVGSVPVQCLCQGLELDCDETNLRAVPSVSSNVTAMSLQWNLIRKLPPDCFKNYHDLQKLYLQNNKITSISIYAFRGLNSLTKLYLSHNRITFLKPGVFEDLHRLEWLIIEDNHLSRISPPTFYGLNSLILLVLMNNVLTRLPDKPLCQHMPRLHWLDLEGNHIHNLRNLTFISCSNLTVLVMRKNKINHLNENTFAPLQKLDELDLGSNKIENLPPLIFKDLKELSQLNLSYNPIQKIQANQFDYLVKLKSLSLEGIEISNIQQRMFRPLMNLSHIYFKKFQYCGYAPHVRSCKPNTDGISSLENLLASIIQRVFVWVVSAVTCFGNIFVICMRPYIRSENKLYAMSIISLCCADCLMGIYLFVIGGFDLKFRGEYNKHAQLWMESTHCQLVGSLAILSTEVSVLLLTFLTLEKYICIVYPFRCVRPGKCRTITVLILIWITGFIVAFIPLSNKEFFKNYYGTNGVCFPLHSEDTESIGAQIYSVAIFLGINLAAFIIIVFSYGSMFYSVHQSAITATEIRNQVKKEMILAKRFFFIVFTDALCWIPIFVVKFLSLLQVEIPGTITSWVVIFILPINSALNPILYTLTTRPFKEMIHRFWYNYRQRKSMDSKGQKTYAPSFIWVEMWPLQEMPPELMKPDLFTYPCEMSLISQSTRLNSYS


Biological target: T1, RXFP1 receptor
Experiment: cell-based or functional assay

| EC50 (nM), OVCAR 5 cells (cAMP) [nM] | EMax, OVCAR 5 cells (cAMP) [%] | Binder |
| --- | --- | --- |
| 0.08 | 80 | Ac-LEGREKVRAK(Ac)I[Aib][Aib]EG[Nle]STWS[Aib]RKKK([PEG2″-PEG2″-γGlu-γGlu-γGlu-PEG2″-γGlu-Stearoyl])-NH2 [peptide of SEQ ID NO: 102] |
| 0.09 | 79 | Ac-LEGREKVRAK(Ac)I[Aib][Aib]EG[Nle]ST[1Nal]S[Aib]RKKK([PEG2″-PEG2″-γGlu-γGlu-γGlu-PEG2″-γGlu-Stearoyl])-NH2 [peptide of SEQ ID NO: 103] |
| 0.16 | 89 | Ac-LEGREKVRAQI[Aib][Aib]EG[Nle]STWS[Aib]RKK([γGlu-γGlu-PEG2″-PEG2″-γGlu-Stearoyl])-NH2 [peptide of SEQ ID NO: 104] |
| 0.03 | 88 | Ac-LEGREKVRAQI[Aib][Aib]EG[Nle]STWS[Aib]RKKK([γGlu-γGlu-PEG2″-PEG2″-γGlu-Stearoyl])-NH2 [peptide of SEQ ID NO: 105] |

Further lines, the binder ahead of its results:

| Binder | EC50 (nM), OVCAR 5 cells (cAMP) [nM] | EMax, OVCAR 5 cells (cAMP) [%] |
| --- | --- | --- |
| Ac-LEGREKVRAQI[Aib][Aib]EG[Nle]STWS[Aib]RKKK([PEG12-γGlu-γGlu-γGlu-Stearoyl])-NH2 (SMILES CCCCCCCCCCCCCCCCCC(=O)N[C@@H](CCC(=O)N[C@@H](CCC(=O)N[C@@H](CCC(=O)NCCOCCOCCOCCOCCOCCOCCOCCOCCOCCOCCOCCOCCC(=O)NCCCC[C@H](NC(=O)[C@H](CCCCN)NC(=O)[C@H](CCCCN)NC(=O)[C@H](CCCNC(=N)N)NC(=O)C(C)(C)NC(=O)[C@H](CO)NC(=O)[C@H](Cc1c[nH]c2ccccc12)NC(=O)[C@@H](NC(=O)[C@H](CO)NC(=O)[C@H](CCCC)NC(=O)CNC(=O)[C@H](CCC(=O)O)NC(=O)C(C)(C)NC(=O)C(C)(C)NC(=O)[C@@H](NC(=O)[C@H](CCC(N)=O)NC(=O)[C@H](C)NC(=O)[C@H](CCCNC(=N)N)NC(=O)[C@@H](NC(=O)[C@H](CCCCN)NC(=O)[C@H](CCC(=O)O)NC(=O)[C@H](CCCNC(=N)N)NC(=O)CNC(=O)[C@H](CCC(=O)O)NC(=O)[C@H](CC(C)C)NC(C)=O)C(C)C)[C@@H](C)CC)[C@@H](C)O)C(N)=O)C(=O)O)C(=O)O)C(=O)O) [peptide of SEQ ID NO: 97] | 4.92 | 98 |
| Ac-LEGREKVRAQI[Aib][Aib]EG[Nle]STWS[Aib]RKKK([PEG2′-PEG2′-γGlu-γGlu-γGlu-PEG2′-Stearoyl])-NH2 [peptide of SEQ ID NO: 98] | 0.74 | 99 |
| Ac-LEGREKVRAQI[Aib][Aib]EG[Nle]STWS[Aib]RKKK([PEG2′-PEG2′-γGlu-γGlu-PEG2′-γGlu-Stearoyl])-NH2 [peptide of SEQ ID NO: 99] | 0.01 | 87 |
| Ac-LEGREKVRAQI[Aib][Aib]EG[Nle]STWS[Aib]RKK([PEG2″-PEG2″-γGlu-γGlu-PEG2″-γGlu-Stearoyl])-NH2 [peptide of SEQ ID NO: 100] | 0.16 | 90 |
| Ac-LEGREKVRAK(Ac)I[Aib][Aib]EG[Nle]STWS[Aib]RKK(Ac)K([PEG2″-PEG2″-γGlu-γGlu-PEG2″-γGlu-Stearoyl])-NH2 [peptide of SEQ ID NO: 101] | 0.16 | 86 |
| Ac-LEGREKVRAQI[Aib][Aib]EG[Nle]STWS[Aib]RK[PEG2″][PEG2″]K([γGlu-γGlu-γGlu-Palmitoyl])-NH2 [peptide of SEQ ID NO: 11] | 14.7 | 89 |

Reference: patent US20190233493A1 (Sanofi, published 2019)
